In assay [1] the target is T1, Anti-PSMA Fab (SEQ ID NOs: 19, 20).
T1 construct: also called 006 PSMA Fab
Put plainly: phage binding ELISA; PSMA Fab coated wells pre-incubated with PSMA antigen as competitor, anti-M13 HRP detection.
Protocol: (§1) Clonal phage were harvested as crude supernatants and screened via standard ELISAs. […] Prior to the addition of clonal phage. wells were incubated with blocking buffer and PSMA antigen or blocking buffer alone. Without washing or aspirating, clonal phage supernatants were then added to the wells and incubated for a short time. Wells were then washed followed by detection of bound phage using a horse radish conjugated anti-M13 antibody.

For assay [2] the target is unchanged. Put plainly: phage binding ELISA; biotinylated PSMA Fab on neutravidin plate, clonal phage supernatant, anti-M13 HRP detection.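 Further: wells were preincubated with blocking buffer either containing PSMA antigen or without it before crude phage supernatant was added, briefly incubated, then washed prior to detection.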
Protocol: as §1
In assay [3] the target is T2, Anti-PSMA Fab (SEQ ID NOs: 19, 20).
T2 construct: In the phage ELISA the Fab was biotinylated and captured on neutravidin coated plates; also called 006 PSMA Fab
Kind of assay: phage binding ELISA on captured anti-PSMA Fab; competitor: PSMA antigen.
Protocol: as §1

Assay [4] shares this target. Kind of assay: phage binding ELISA; clonal phage on biotinylated anti-PSMA Fab captured on neutravidin, anti-M13 HRP detection.
Protocol: as §1
Assay [5] addresses T3, Anti-PSMA Fab (SEQ ID NOs: 19, 20).
T3 construct: Used biotinylated and captured on neutravidin coated plates; also called 006 PSMA Fab
Kind of assay: phage binding ELISA; biotinylated anti-PSMA Fab on neutravidin plate, clonal phage supernatant, anti-M13-HRP detection.
Protocol: as §1

Assay [6] shares this target. Put plainly: phage binding ELISA; biotinylated anti-PSMA Fab on neutravidin plate, wells pre-incubated with PSMA antigen as competitor, anti-M13-HRP detection.
Protocol: as §1

Where no end group is shown, it is not given here.

Take TEVRCTPPWMCLGF (tested as clonal phage supernatant) [Phage-1814]: the “Anti-PSMA Fab signal in the presence of PSMA” value (from here on “Anti-PSMA Fab signal”) in assay [1] stood at 0.0981. For the same molecule, in assay [2], the “Anti-PSMA Fab (SEQ ID NOs: 19, 20) signal” value was found to be 2.36.

VLKLCVPPWMCMAQ [Phage-1827]: the “Anti-PSMA Fab signal” value in assay [3] worked out at 0.0968. In assay [4], the “Anti-PSMA Fab (SEQ ID NOs: 19, 20) signal” value turned out to be 2.32.

For the molecule VEKMCRPAWMCWVM [Phage-1824], the “Anti-PSMA Fab signal” value in assay [3] came out at 0.214. In assay [4], the “Anti-PSMA Fab (SEQ ID NOs: 19, 20) signal” value came out at 2.37.

For TVAYCKPAWMCQGF (tested as clonal phage supernatant) [Phage-1813], the “Anti-PSMA Fab signal” value in assay [1] was 0.108. Further, the “Anti-PSMA Fab (SEQ ID NOs: 19, 20) signal” value in assay [2] was 2.37.

In the case of IVVKCVPSWMCEGF (tested as clonal phage supernatant) [Phage-1812], the “Anti-PSMA Fab signal” value in assay [1] worked out at 0.102. Moreover, the “Anti-PSMA Fab (SEQ ID NOs: 19, 20) signal” value in assay [2] is 2.4.

Take VVIKCKPEWMCSGF (tested as clonal phage supernatant) [Phage-1807]: in assay [1], the “Anti-PSMA Fab signal” value is 0.0946. Also, in assay [2], the “Anti-PSMA Fab (SEQ ID NOs: 19, 20) signal” value is 2.18.

In the case of VLKYCIPDWMCAGI (tested as clonal phage supernatant) [Phage-1816], in assay [1], the “Anti-PSMA Fab signal” value worked out at 0.0978. In addition, the “Anti-PSMA Fab (SEQ ID NOs: 19, 20) signal” value in assay [2] turned out to be 2.24.

Regarding ITPICKPAWICSGF (tested as clonal phage supernatant) [Phage-1806], the “Anti-PSMA Fab signal” value in assay [1] came out at 0.0631. The “Anti-PSMA Fab (SEQ ID NOs: 19, 20) signal” value in assay [2] worked out at 2.2.

As to PEHLCLPRWMCEGF (tested as clonal phage supernatant) [Phage-1808], in assay [1], the “Anti-PSMA Fab signal” value amounted to 0.135. Besides, in assay [2], the “Anti-PSMA Fab (SEQ ID NOs: 19, 20) signal” value turned out to be 1.78.

As to LEPLCVPRWMCVGF (tested as clonal phage supernatant) [Phage-1803], the “Anti-PSMA Fab signal” value in assay [1] came out at 0.112. Also, the “Anti-PSMA Fab (SEQ ID NOs: 19, 20) signal” value in assay [2] is 2.36.

Consider MVKWCTPAWMCEML [Phage-1820], for which the “Anti-PSMA Fab signal” value in assay [3] was found to be 0.113. In assay [4], the “Anti-PSMA Fab (SEQ ID NOs: 19, 20) signal” value was 2.41.

B1: Phage-1721 (peptide)
peptide: SCFSFARLEVVPCD
modifications: cysteine pairing not given here; also: displayed on phage as pIII fusion, pIII sequence, linker and fusion order not given here
notes: not shown: pIII coat protein of the bacteriophage to which the peptide is fused
On to B1, for which the “Anti-PSMA Fab (SEQ ID NOs: 19, 20) signal” value in assay [5] came to 1.26. In assay [6], the “Anti-PSMA Fab signal” value worked out at 0.0555.

With VEVKCFPLWFCVGL (tested as clonal phage supernatant) [Phage-1805], the “Anti-PSMA Fab signal” value in assay [1] was found to be 0.0923. The “Anti-PSMA Fab (SEQ ID NOs: 19, 20) signal” value in assay [2] is 2.23.

B2: Phage-1715 (peptide)
peptide: ILCGLYEALVSECG
modifications: cysteine pairing not given here; also: displayed on phage as pIII fusion, pIII sequence, linker and fusion order not given here
notes: as for B1
On to B2, for which the “Anti-PSMA Fab (SEQ ID NOs: 19, 20) signal” value in assay [5] is 2.49. Besides, in assay [6], the “Anti-PSMA Fab signal” value was 0.063.

With TTHVCIPSWMCSGF (tested as clonal phage supernatant) [Phage-1810], the “Anti-PSMA Fab signal” value in assay [1] amounted to 0.0668. Moreover, the “Anti-PSMA Fab (SEQ ID NOs: 19, 20) signal” value in assay [2] is 2.15.

B3: Phage-1714 (peptide)
peptide: FVCWTFGEHIKVCR
modifications: cysteine pairing not given here; also: displayed on phage as pIII fusion, pIII sequence, linker and fusion order not given here
notes: as for B1
On to B3, for which the “Anti-PSMA Fab (SEQ ID NOs: 19, 20) signal” value in assay [5] amounted to 2.51. Moreover, the “Anti-PSMA Fab signal” value in assay [6] came out at 0.205.

For the molecule ALKLCIPFWMCEGL [Phage-1819], the “Anti-PSMA Fab signal” value in assay [3] turned out to be 0.129. Moreover, the “Anti-PSMA Fab (SEQ ID NOs: 19, 20) signal” value in assay [4] came out at 2.44.

B4: Phage-1722 (peptide)
peptide: TCLRFADLAIIHCD
modifications: cysteine pairing not given here; also: displayed on phage as pIII fusion, pIII sequence, linker and fusion order not given here
notes: also called Peptide-160; not shown: pIII coat protein of the bacteriophage to which the peptide is fused
With B4, the “Anti-PSMA Fab (SEQ ID NOs: 19, 20) signal” value in assay [5] is 1.82. For the same molecule, the “Anti-PSMA Fab signal” value in assay [6] came to 0.0697.

With VNHWCVPTWMCAGF (tested as clonal phage supernatant) [Phage-1811], in assay [1], the “Anti-PSMA Fab signal” value was 0.186. In addition, in assay [2], the “Anti-PSMA Fab (SEQ ID NOs: 19, 20) signal” value was found to be 2.41.

B5: Phage-1717 (peptide)
peptide: HCLGPALGPVDGDC
modifications: cysteine pairing not given here; also: displayed on phage as pIII fusion, pIII sequence, linker and fusion order not given here
notes: as for B1
On to B5, for which, in assay [5], the “Anti-PSMA Fab (SEQ ID NOs: 19, 20) signal” value was 2.33. Besides, in assay [6], the “Anti-PSMA Fab signal” value stood at 0.076.

Take WENWCTPAWMCVGF [Phage-1822]: the “Anti-PSMA Fab signal” value in assay [3] came to 0.0932. For the same molecule, in assay [4], the “Anti-PSMA Fab (SEQ ID NOs: 19, 20) signal” value came out at 2.37.

Take PERLCTPPWMCLGF [Phage-1817]: the “Anti-PSMA Fab signal” value in assay [3] turned out to be 0.0917. In assay [4], the “Anti-PSMA Fab (SEQ ID NOs: 19, 20) signal” value worked out at 2.24.

On to ITPVCKPLWMCSGL (tested as clonal phage supernatant) [Phage-1804], for which the “Anti-PSMA Fab signal” value in assay [1] was found to be 0.0764. Moreover, the “Anti-PSMA Fab (SEQ ID NOs: 19, 20) signal” value in assay [2] came to 2.35.

Take MDNWCTPEWMCLGF [Phage-1828]: the “Anti-PSMA Fab signal” value in assay [3] worked out at 0.065. The “Anti-PSMA Fab (SEQ ID NOs: 19, 20) signal” value in assay [4] is 2.3.

Turning to ISKLCTPPWMCEML [Phage-1825], the “Anti-PSMA Fab signal” value in assay [3] was 0.0582. For the same molecule, the “Anti-PSMA Fab (SEQ ID NOs: 19, 20) signal” value in assay [4] is 2.33.

Turning to YERACIPNWICEGF (tested as clonal phage supernatant) [Phage-1809], in assay [1], the “Anti-PSMA Fab signal” value amounted to 0.0842. The “Anti-PSMA Fab (SEQ ID NOs: 19, 20) signal” value in assay [2] was found to be 1.03.

B6: Phage-1818 (peptide)
peptide: MERWCVPDWMCATF
modifications: cysteine pairing not given here; also: displayed on phage as pIII fusion, pIII sequence and linker not given here
Turning to B6, the “Anti-PSMA Fab signal” value in assay [3] was found to be 0.0578. The “Anti-PSMA Fab (SEQ ID NOs: 19, 20) signal” value in assay [4] came to 2.47.

B7: Phage-1718 (peptide)
peptide: SCGWLRGEEFGWWC
modifications: cysteine pairing not given here; also: displayed on phage as pIII fusion, pIII sequence, linker and fusion order not given here
notes: also called Peptide-190; not shown: pIII coat protein of the bacteriophage to which the peptide is fused
Consider B7, for which the “Anti-PSMA Fab (SEQ ID NOs: 19, 20) signal” value in assay [5] amounted to 0.648. In addition, the “Anti-PSMA Fab signal” value in assay [6] stood at 0.071.

B8: Phage-1719 (peptide)
peptide: DCFYAADIHWNYCN
modifications: cysteine pairing not given here; also: displayed on phage as pIII fusion, pIII sequence, linker and fusion order not given here
notes: as for B1
Take B8: the “Anti-PSMA Fab (SEQ ID NOs: 19, 20) signal” value in assay [5] is 1.88. The “Anti-PSMA Fab signal” value in assay [6] was 1.15.

B9: Phage-1716 (peptide)
peptide: IECAYMTDQRFWCW
modifications: cysteine pairing not given here; also: fused to phage pIII (clonal phage display)
notes: as for B1
Consider B9, for which the “Anti-PSMA Fab (SEQ ID NOs: 19, 20) signal” value in assay [5] is 1.93. The “Anti-PSMA Fab signal” value in assay [6] was 0.066.

As for WENWCQPAWMCTGL [Phage-1826], the “Anti-PSMA Fab signal” value in assay [3] worked out at 0.0691. The “Anti-PSMA Fab (SEQ ID NOs: 19, 20) signal” value in assay [4] came to 2.33.

For the molecule TEIRCTPQWMCLGF [Phage-1823], the “Anti-PSMA Fab signal” value in assay [3] is 0.0871. Besides, the “Anti-PSMA Fab (SEQ ID NOs: 19, 20) signal” value in assay [4] was determined as 2.37.

For VERLCTPAWMCHGF (tested as clonal phage supernatant) [Phage-1815], the “Anti-PSMA Fab signal” value in assay [1] came to 0.214. Also, in assay [2], the “Anti-PSMA Fab (SEQ ID NOs: 19, 20) signal” value came out at 2.36.

B10: Phage-1821 (peptide)
peptide: IVKRCEPMWMCAGF
modifications: cysteine pairing not given here; also: displayed on phage as pIII fusion, pIII sequence and linker not given here
For B10, in assay [3], the “Anti-PSMA Fab signal” value was determined as 0.264. Also, in assay [4], the “Anti-PSMA Fab (SEQ ID NOs: 19, 20) signal” value is 2.38.

(Values after patent publication US20260242478A1 (published 2026).)
